Data as given in patent US20240254205A1 (UNIVERSITY OF ROCHESTER, published 2024).
Numbering of substitutions follows the chain as printed. Read-outs that look alike come from different tables or passages of the source.

B1: 1086C12 (antibody, V domains shown)
VH: VQLVESGGGVVQPGRSLRLSCVASGFSLSTYGMLWVRQAPGKGLVWVALISYEEGSNKKYADSVKGRFTISRDNSRNTLYLQMSSLTSDDTGVYYCARDAGCDSVGYYPGRLWGQGTLVTVSS
VL: QSVLTQPPSASGTPGQTVTISCSGTSSNIGSNFVYWYQQLPGTAPKLLIFRNNQRPSGVPDRFSGSKSGTSASLAVSGLRSEDEAEYYCAAWDDSLSGHLVFGGGTKLTVL
B2: 1092E10 (antibody, V domains shown)
VH: EVQLVESGGGSVKPGGSLRLSCAASGFTFTNSWMSWVRQAPGKGLEWVGRIKSKSDGGTTDYAAPVKGRFSISRDDSKSTLFLQMNSLKTEDTAVYYCSAAPFTESNGYKSWDYLYGMDVWGQGTTVTVSS
VL: SYELTQPPSVSVSPGQTATITCSGDKLGDKFASWYQQQPGQSPVLVIYQHTKRPSGIPERFSGSISGSTATLTISGTQAVDEADYYCQAWDSNSYVFGAGTKVTVL
notes: also called 1092E01
B3: KPF2/1092D4 (antibody, V domains shown)
VH: EVQLLESGGQLVQPGGSLRLSCAVSGFTFSRYAMYWVRQAPGKGLEWVSIISGDGGVTFYADSVKGRFTISRDNSKNTLFLQMNSLRADDTAVYYCAKDNQDLDLWSGSYKGTFDDWGQGTLVTVSS
VL: NFMLTQPHSVSGSPGKTVSISCTRSSGIIASNHVQWYQQRPGSAPTTVIFEDNQRPSGVPDRFSGSIDSSSNSASLTISGLKTEDEADYYCQSYDSSRYWVFGGGTKLTVL
B4: 1122C7 (antibody, V domains shown)
VH: B3 VH with R31S, A40S, F80Y, D89E, N100K, D116E
VL: B3 VL with H33Y
B5: 1122C6 (antibody, V domains shown)
VH: QVQLQESGPGLVKPSETLSLTCTVSGGSISSYYWSWIRQPPGKAVEWIGYIFDGGSTDYNPSLKSRVAMSVDASENQFSLKLASVTAADTAVYYCARYRVSGNYYDTPWFDPWGQGLLVTVSS
VL: SYELTQPPSLSASPGQTARITCSGDALPKQDVYWYQQKPGQAPLLVIYKDTERPSGIPERFSGSRSGTTVTLIISGVQAEDEADYYCQSAASSYGYVVFGGGTKLTVL

Key:
[1] = biological target: T1, NA of B/Lee/1940 on infected MDCK cells (influenza B virus B/Lee/1940, UniProt P03474 1-466); assay: immunofluorescence on infected MDCK cells, hMAb at 1 µg/ml
T1 construct: whole, on cells

[2] = biological target: T2, recombinant IBV NA protein B/Hong Kong/330/2001 (Victoria lineage) (influenza B virus B/Hong Kong/330/2001); assay: avidity ELISA with urea, hMAb at 1 µg/ml
[3] = biological target: T2, recombinant IBV NA protein B/Hong …
[4] = biological target: T2, recombinant IBV NA protein B/Hong …; assay: surface plasmon resonance, antibody on the chip, NA flowed over
[5] = biological target: T2, recombinant IBV NA protein B/Hong …; remark: listed apart in the source
[6] = biological target: T1, NA of B/Lee/1940 on infected MDCK cells; assay: immunofluorescence (IFA) on infected MDCK cells

Binder | binding result [1] | binding activity maintained in 8 M urea [2] [%] | EC50 (read off the curve) [3] [µg/mL] | Kd [4] [nM] | Kd [5] [nM] | koff [5] [s⁻¹] | kon [5] [M⁻¹ s⁻¹] | binding result [6]
B1 | binds | > 75 | ~0.05 |  |  |  |  | 
B2 | binds | > 75 | ~0.05 |  |  |  |  | 
B3 | binds | > 75 | ~0.05 | 0.1 | 0.185 | 4.86e-05 | 264000 | 
B4 | binds | > 75 |  |  |  |  |  | 
B5 |  |  |  |  |  |  |  | no binding (tested: 1 µg/ml)
